Measurements published in patent publication US20200024360A1 (Janssen / Centocor, published 2020).

T1: Cynomolgous monkey PSMA, full length (Macaca fascicularis, UniProt Q04609 1-750 (human entry))
T1 construct: On transfected HEK293F cells; also called cyno PSMA; EHH56646.1
T1 chain: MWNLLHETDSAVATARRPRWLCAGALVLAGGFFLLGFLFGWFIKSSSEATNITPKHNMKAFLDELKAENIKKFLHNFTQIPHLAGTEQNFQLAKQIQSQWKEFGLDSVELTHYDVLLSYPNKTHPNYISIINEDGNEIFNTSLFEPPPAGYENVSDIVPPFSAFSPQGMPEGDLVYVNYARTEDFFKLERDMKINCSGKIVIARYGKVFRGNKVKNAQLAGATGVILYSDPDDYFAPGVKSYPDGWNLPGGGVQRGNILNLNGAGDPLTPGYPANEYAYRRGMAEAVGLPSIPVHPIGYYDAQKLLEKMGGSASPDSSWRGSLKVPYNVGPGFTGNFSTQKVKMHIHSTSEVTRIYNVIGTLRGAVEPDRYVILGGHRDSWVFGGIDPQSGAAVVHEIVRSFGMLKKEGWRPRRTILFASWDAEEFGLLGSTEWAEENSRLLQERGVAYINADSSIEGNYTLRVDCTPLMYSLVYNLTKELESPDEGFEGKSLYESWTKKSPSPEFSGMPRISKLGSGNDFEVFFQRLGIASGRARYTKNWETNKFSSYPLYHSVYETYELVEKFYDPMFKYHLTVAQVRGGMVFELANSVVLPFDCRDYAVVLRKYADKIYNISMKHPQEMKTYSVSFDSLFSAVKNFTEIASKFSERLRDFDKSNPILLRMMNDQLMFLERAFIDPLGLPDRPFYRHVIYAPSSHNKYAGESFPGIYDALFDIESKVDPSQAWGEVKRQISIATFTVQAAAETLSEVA

B1: PS3B27 (bispecific antibody, human IgG4 S228P, kappa, lambda, F234A L235A)
heavy 1: not shown
light 1: not shown
heavy 2: EVQLVESGGGLVQPGGSLRLSCAASGFTFNTYAMNWVRQAPGKGLEWVARIRSKYNNYATYYAASVKGRFTISRDDSKNSLYLQMNSLKTEDTAVYYCARHGNFGNSYVSWFAYWGQGTLVTVSSASTKGPSVFPLAPCSRSTSESTAALGCLVKDYFPEPVTVSWNSGALTSGVHTFPAVLQSSGLYSLSSVVTVPSSSLGTKTYTCNVDHKPSNTKVDKRVESKYGPPCPPCPAPEAAGGPSVFLFPPKPKDTLMISRTPEVTCVVVDVSQEDPEVQFNWYVDGVEVHNAKTKPREEQFNSTYRVVSVLTVLHQDWLNGKEYKCKVSNKGLPSSIEKTISKAKGQPREPQVYTLPPSQEEMTKNQVSLTCLVKGFYPSDIAVEWESNGQPENNYKTTPPVLDSDGSFLLYSKLTVDKSRWQEGNVFSCSVMHEALHNHYTQKSLSLSLGK
light 2: QTVVTQEPSLTVSPGGTVTLTCRSSTGAVTTSNYANWVQQKPGQAPRGLIGGTNKRAPGTPARFSGSLLGGKAALTLSGVQPEDEAEYYCALWYSNLWVFGGGTKLTVLGQPKAAPSVTLFPPSSEELQANKATLVCLISDFYPGAVTVAWKADSSPVKAGVETTTPSKQSNNKYAASSYLSLTPEQWKSHRSYSCQVTHEGSTVEKTVAPTECS
notes: IgG4 PAA; PSMA arm chains first, then CD3 arm (F405L, R409K); also called PSMB127 x CD3B219; PS2B27
B2: PS3B30 (bispecific antibody, human IgG4 S228P, kappa, lambda, F234A L235A)
heavy 1: not shown
light 1: not shown
heavy 2: B1 heavy 2
light 2: B1 light 2
notes: IgG4 PAA; PSMA arm chains first, then CD3 arm (F405L, R409K); also called PSMB130 x CD3B219

Experiments:
[1] = target: T2, human PSMA (prostate specific membrane antigen), full length (human, UniProt Q04609 1-750); test: flow cytometry cell binding assay, bispecific antibody titrated on LNCaP cells (human PSMA)
T2 construct: On LNCaP or C4-2B cells (endogenous) or transduced HEK293F cells; also called FOLH1_HUMAN; hPSMA
Description: PSMA×CD3 bispecific antibodies were tested for binding to PSMA positive cell lines LNCAP, human PSMA-HEK, Chimpanzee-PSMA-HEK and Cynomolgous monkey PSMA-HEK. To assess the binding capabilities of the PSMA bispecific antibodies, the cell-binding assay was utilized (described previously). Briefly, PSMA expressing tumor cells are bound by bispecific antibodies at known concentrations and the bound antibody is detected by an anti-human kappa light chain PE conjugated detection reagent (Invitrogen). The Mean Fluorescents Intensity (MFI) is the measure of bound bispecific antibody. The MFI is converted to a relative EC₅₀. EC₅₀ is a commonly used dose-response curve, where the half maximal effective concentration or the EC₅₀ point is defined as the inflection point of the curve. EC₅₀ s were determined by measuring cell bound bispecific and known concentrations. […] The dose response curves were then diluted down to that of background or no bispecific binding. The inflection point of this curve reflects the EC₅₀ point. The calculated EC₅₀ is determined by taking the ug/ml amount of bispecific antibody at the EC₅₀ point and converting it to a molarity value based on the MW of the bispecific antibody. Bispecific antibodies were normalized for protein concentration and then incubated with the same number of cells expressing either human or cyno PSMA. The MFI at each concentration was collected by flow cytometry and plotted as a function of concentration. Data was transformed via log 10 and then plotted. Nonlinear regression of binding curves was done to determine EC₅₀ s. These relative values were used for ranking PSMA binding to target cells.
PSMA×CD3 bispecific antibodies were tested for binding to PSMA positive cell line, LNCAP, to PSMA negative cell line, PC3. To assess the binding capabilities of the PSMA bispecific antibodies, the cell-binding assay was utilized (described previously). Bispecific antibodies were normalized for protein concentration and then incubated with the same number of cells expressing either human or cyno PSMA. The MFI at each concentration was collected by flow cytometry and plotted as a function of concentration.

[2] = target: T1, Cynomolgous monkey PSMA, full length; test: FACS, whole cell binding
[3] = target: T2, human PSMA (prostate specific membrane …); test: FACS, whole cell binding

Binder | EC50 (read off the curve) [1] [nM] | EC50 [2] [nM] | EC50 [3] [nM]
B1 | ~7 |  | 
B2 |  | 37.8 to 57 | 8 to 8.5
